Test: soluble on expression in E. coli; label from the status in PepcDB or PDB records

| Sequence | soluble on expression in E. coli |
| --- | --- |
| PDPVRLEIFKNLYQFIAEQMGIVLQNTAASVNIKERLDFSCAIFDSSGLLVANAPHIPVHLGSMSESVCSLINDKGETIKPGNVYLSNNPYNGGTHLPDVTAITPVFPETQENPPTPLFYVASRGHQADIGGITPGSMPPHSTTVEEEGILFDNFLLVEAGNFQEIQVRNLLANHLYPARNPDQNIADFQAQIAANERGVKELHKMVAQYGLPIVQVYMKFVQDNAGESVRRAIDVLKDGTFIYEMDGGAKIQVKVTINREKRSAEIDFTGTSEQLNSNFNAPKAVTQAAVLYVFRTLVDDNIPLNAGCLKPLDIIVPEGCMLNPTYPSAVVAGNVETSQTIVDALYGALSVMAASQGTMNNFTFGSDRYQYYETICGGSGAGSNFDGTDAVHTHMTNSLLTDPEVLETRYPVLVESFSLRSDSGGKGKYSGGNGVVRRIRFLEPMTANILSGHRLVPPFGLNGGEAGQVGHNRIERHDGTQENLDSTATAEMQPGDVFVIETPGGGGFG | not soluble |
| PEIKDHLIMVGFGFSGKTISKAAKAAGIPYIILETNPDIVKQEKTKGERIQYGDATFGAVQEHAGIRNARVLITGISDSVATRKIVEKAKELNPNIYVIAKVRNLQEMKHLHHLGADEIIPEEYETSVEIFVRLLEKYLV | not soluble |
| PEMKIVMTSTTEVMEEVLVVAYGTAKKSAFTGSAKMIHTEQITKRPVTNVIESLSGQVAGLQMTMTNGQPGETPSILIRGISSMSAKTDPLIVLDGMPYEGGWNNINPADVESISVLKDAASTALYGARGANGVIIITTKSAKAGD | not soluble |
| PEQEEEILGSDDDEQEDPNDYCKGGYHLVKIGDLFNGRYHVIRKLGWGHFSTVWLSWDIQGKKFVAMKVVKSAEHYTETALDEIRLLKSVRNSDPNDPNREMVVQLLDDFKISGVNGTHICMVFEVLGHHLLKWIIKSNYQGLPLPCVKKIIQQVLQGLDYLHTKCRIIHTDIKPENILLSVNEQYIRRLAAEATEWQRSGAPPPSGSAVSTAPATAGNFLVNPLEPKNAEKLKVKIADLGNACWVHKHFTEDIQTRQYRSLEVLIGSGYNTPADIWSTACMAFELATGDYLFEPHSGEEYTRDEDHIALIIELLGKVPRKLIVAGKYSKEFFTKKGDLKHITKLKPWGLFEVLVEKYEWSQEEAAGFTDFLLPMLELIPEKRATAAECLRHPWLNS | soluble |
| PGRLHNAIVRPRVLDLLQHATCYKLVLFRSPAGYGKTTMAAQWLADKPNLGWYSIDDSDNDPFRFMNYLLQAINKATHN | not soluble |
| PHFRGPVRKSTSIDTGPTESPASLKRVASPAAKPAIPGEEFIAMYTYESSEQGDLTFQQGDVIVVTKKDGDWWTGTGGDKSGVFPSNYVRLKDSEGSGTAGKTGSLGKKPEIAQVIASYAATGPEQLTLAPGQLILIRKKNPGGWWEGELQARGKKRQIGWFPANYVKLLSPGTSKITPTELPKTAVQPAVCQVIGMYDYTAQNDDELAFSKGQIINVLNKEDPDWWKGEVSGQVGLFPSNYVKLTTDMDPSQQWCSDLHLLDMLTPTERKRQGYIHELIVTEENYVNDLQLVTEIFQKPLTESELLTEKEVAMIFVNWKELIMCNIKLLKALRVRKKMSGEKMPVKMIGDILSAQLPHMQPYIRFCSCQLNGAALIQQKTDEAPDFKEFVKRLAMDPRCKGMPLSSFILKPMQRVTRYPLIIKNILENTPENHPDHSHLKHALEKAEELCSQVNEGVREKENSDRLEWIQAHVQCEGLSEQLVFNSVTNCLGPRKFLHSGKLYKAKSNKELYGFLFNDFLLLTQITKPLGSSGTDKVFSPKSNLQYKMYKTPIFLNEVLVKLPTDPSGDEPIFHISHIDRVYTLRAESINERTAWVQKIKAASELYIETEKKKREKAYLVRSQRATGIGRLMVNVVEGIELKPCRSHGKSNPYCEVTMGSQCHITKTIQDTLNPKWNSNCQFFIRDLEQEVLCITVFERDQLSADDFLGRTEIRVADIKKDQGSKGPVTKCLLLHEVPTGEIVVRLDLQLFDEP | soluble |
| PHSMEPQVTLNVTFKNEIQSFLVSDPENTTWADIEAMVKVSFDLNTIQIKYLDEENEEVSINSQGEYEEALKMAVKQGNQLQMQVHEGHHVVDEAPPPVVGAKRLAARAGKKPLAHYSSLVRVLGSDMKTPEDPAVQSFPLVPCDTDQPQDKPPDWFTSYLETFREQVVNETVEKLEQKLHEKLVLQNPSLGSCPSEVSMPTSEETLFLPENQFSWHIACNNCQRRIVGVRYQCSLCPSYNICEDCEAGPYGHDTNHVLLKLRRPVVGSSEPFCHSKYSTPRLPAALEQVRLQKQVDKNFLKAEKQRLRAEKKQRKAEVKELKKQLKLHRKIHLWNSIHGLQSPKSPLGRPESLLQSNTLMLPLQPCTSVMPMLSAAFVDENLPDGTHLQPGTKFIKHWRMKNTGNVKWSADTKLKFMWGNLTLASTEKKDVLVPCLKAGHVGVVSVEFIAPALEGTYTSHWRLSHKGQQFGPRVWCSIIVDPFPSEESPDNIEKGMISSSKTDDLTCQQEETFLLAKEERQLGEVTEQTEGTAACIPQKAKNVASERELYIPSVDLLTAQDLLSFELLDINIVQELERVPHNTPVDVTPCMSPLPHDSPLIEKPGLGQIEEENEGAGFKALPDSMVSVKRKAENIASVEEAEEDLSGTQFVCETVIRSLTLDAAPDHNPPCRQKSLQMTFALPEGPLGNEKEEIIHIAEEEAVMEEEEDEEDEEEEDELKDEVQSQSSASSEDYIIILPECFDTSRPLGDSMYSSALSQPGLERGAEGKPGVEAGQEPAEAGERLPGGENQPQEHSISDILTTSQTLETVPLIPEVVELPPSLPRSSPCVHHHGSPGVDLPVTIPEVSSVPDQIRGEPRGSSGLVNSRQKSYDHSRHHHGSSIAGGLVKGALSVAASAYKALFAGPPVTAQPIISEDQTAALMAHLFEMGFCDRQLNLRLLKKHNYNILQVVTELLQLNNNDWYSQRY | soluble |
| PKATAQMEGRLQEFLTAYAPGARLALADGVLGFIHHQIVELARDCLAKSGENLVTSRYFLEMQEKLERLLQDAHERSDSEEVSFIVQLVRKLLIIISRPAR | soluble |
| PKISQLVAPFELTQNNNDKAILLIHGLTDSPFSFHDLSQFFYQQGFTVRTLLLPGHGVAPSELLNTDYQAWQQAATFAIDQTLNDYQQVYLGGLSTGGALIFNYLMQQKQVDEKIKGLFMWSPATKAKSDLAWLAQYIDGIPFVDWIDLDADIDFAKYESFPYNAGAQVHALMNLVVGEGANASRQMHDIPLFVVASEHDQTIDTAHTLQLVQQWQLAS | not soluble |
| PKKPPMNGYQKFSQELLSNGELNHLPLKERMVEIGSRWQRISQSQKEHYKKLAEEQQRQYKVHLDLWVKSLSPQDRAAYKEYISNKRK | soluble |
| PLLIGGLYPKNLEDRILIKLDQAPPYLLDGLVAVEDRDFYHHFGVSPKSIARAIWVNTSQGQMRQGGSTLTQQLVKNFYLTNERSLSRKLTEAMMAVLLEIHYSKQEILEAYLNEVFVGQDGQRAVHGFGLASQYFFSQPLSELKIHQVAMLVGLVKGPSFY | not soluble |
| PMVTAATSLRRALENPDSFIVAPGVYDGLSARVALSAGFDALYMTGAGTAASVHGQADLGICTLNDMRANAEMISNISPSTPVIADADTGYGGPIMVARTTEQYSRSGVAAFHIEDQVQTKRCGHLAGKILVDTDTYVTRIRAAVQARQRIGSDIVVIARTDSLQTHGYEESVARLRAARDAGADVGFLEGITSREMARQVIQDLAGWPLLLNMVEHGATPSISAAEAKEMGFRIIIFPFAALGPAVAAMREAMEKLKRDGIPGLDKEMTPQMLFRVCGLDESMKVDAQAGGAAFDGGVDLK | soluble |
| PNFSEGSSSTESTVRVKHKIEKTTQKLSETVRPRDMFIHDDGAHYKVDDNALYEEIWSDLPHWDVKGIKDISDQYDKAGFKSWFYGIGGSEAKLDLQFSDTIPIDIFQTLFKWSNQSFEYSSFDHILIPFNETKANKKIYLVSYSKQLILEVTVESANYRNIMNDLKNRQSNMPAFSLFSIGSKKEFLLPNKPLTMDKKEFVTESIKTNTFKQALFSDPSIVREDSNYNNRNVLTDGISRLDVNLSQRQVQFQQRNLVQSTSYQTGELIKKSQKYLEDTGSWTDHYQFFNINDSQQLSFYIFMDQIPVINSTAKPFGATSAITVQWANDDILSYKRPNYSLGTNPIKTSETELMGGSEVKMLLSKQTAYDTDKIDQIFLAYQLVSTSTNDDPLVELEPVWAMKVNGKIVPITKDLLRKEGANSGVE | soluble |
| PNILRGLLLGYSEKMVELEHKVEVMQPTIDAFDRIATANGSLCLTDAAKALQMRPKDFISFLSQKQWIYKRTGSAHYVGYQDKVQAGFLEHKVTEVTRGDGSNKITEQVRVTPKGLTRLSKLLGNNHV | not soluble |
| PRRGAVAHANSIVQQLVSEGADISHTRNMLRNAMNGDAVAFSRVEQNIFRQHFPNMPMHGISRDSELAIELRGALRRAVHQQAAS | soluble |
| PSHSGAAIFEKVSGIIAINEDVSPAELTWRSTDGDKVHTVVLSTIDKLQATPASSEKMMLRLIGKVDESKKRKDNEGNEVVPKPQRHMFSFNNRTVMDNIKMTLQQIISRYKDAD | soluble |
| PTEEWLRYVTTARAKSKVDTFLRRKRRELINRGEERVVSVIRTSESMVSAELLDRIAAYFGFLNRETFFYAVGTGTVSLPESFKKL | not soluble |
| PVHAVGIGPGNLDFLTPRGEEAIREADVVVGFETVVEFVADRTDADLLTCGYRDELDTLDAFAERVAGGERGTAVAMGDPNHSGYQFVGKVQRAVDRPVRIVPGI | not soluble |
| PVNQVQSSVSWPQNGSLNSVSAPLMSYTPISFDAKIPVASVDKLRKDQDLILGTLPANSEDAGARGLFVRANDDGLQITSHGELVLDLSKRELAQLPADATIAISATEDETTAGIEGDDSTTETVERDVRPIIMGIYTELESNAAADLLNAGLNAHVEINSRFTSSPTLAKYAS | soluble |
| PVSAMAKKQKNDVADWLMHKQRVQYGGRVYERSGGIKPFLKSIRDGYIGYYLPDQDHGPEHSVFVDFFATRKATLPGLGKIAKLSRSKVLPLFASMNTEDGTFDIEILPAFDLDKGEEQDARTCNEAIEYFVGDKPEQYMWVLQLLHSQEDGNNYYNLFKPRYNTDWQVEK | not soluble |
| PVVLESKQRGPCAMSRLIVKNLPNGMKEERFRQLFAAFGTLTDCSLKFTKDGKFRKFGFIGFKSEEEAQKAQKHFNKSFIDTSRITVEFCKSFGDPAKPRAWSKHAQKPSQPKQPPKDSTTPEIKKDEKKKKVAGQLEKLKEDTEFQEFLSVHRRRAQAATWANDGLDAEPSKGKSKPASDYLNFDSDSGQESEEEGAGEDLEEEASLEPKAAVQKELSDMDYLKSKMVKAGSSSSSEEEESEDEAVHCDEGSEAEEEDSSATPVLQERDSRGAGQEQGMPAGKKRPPEARAETEKPANQKEPTTCHTVKLRGAPFNVTEKNVMEFLAPLKPVAIRIVRNAHGNKTGYIFVDFSNEEEVKQALKCNREYMGGRYIEVFREKNVPTTKGAPKNTTKSWQGRILGENEEEEDLAESGRLFVRNLPYTSTEEDLEKLFSKYGPLSELHYPIDSLTKKPKGFAFITFMFPEHAVKAYSEVDGQVFQGRMLHVLPSTIKKEASEDASALGSSSYKKKKEAQDKANSASSHNWNTLFMGPNAVADAIAQKYNATKSQVFDHETKGSVAVRVALGETQLVQEVRRFLIDNGVSLDSFSQAAAERSKTVILVKNLPAGTLAAELQETFGRFGSLGRVLLPEGGTTAIVEFLEPLEARKAFRHLAYSKFHHVPLYLEWAPVGVFSSAAPQKKKLQDTPSEPMEKDPAEPETVPDGETPEDENPTEEGADNSSAKMEEEEEEEEEEEESLPGCTLFIKNLNFDTTEEKLKEVFSKVGTVKSCSISKKKNKAGVLLSMGFGFVEYRKPEQAQKALKQLQGHVVDGHKLEVRISERATKPAVTLARKKQVPRKQTTSKILVRNIPFQAHSREIRELFSTFGELKTVRLPKKMTGTGTHRGFGFVDFLTKQDAKRAFNALCHSTHLYGRRLVLEWADSEVTLQALRRKTAAHFHEPPKKKRSVVLDEILEQLEGSDSDSEEQTLQL | soluble |
